Laboratory results from the supplement of paper PMC5998384.

Legend:
HeLa Kyoto [1] = experiment: solubility in G1/S (NP-40 vs SDS abundance) (log2 ratio); higher = more soluble; settings: cell cycle stage: G1/S
HeLa Kyoto [2] = experiment: melting temperature (median over replicates), in situ; higher = more thermally stable
HeLa Kyoto [3] = experiment: solubility change mitosis vs G1/S (difference of NP-40 vs SDS log2 ratios) (log2 ratio difference); higher = more soluble in mitosis
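Wherever melting temperature (median over replicates), in situ is given: HeLa Kyoto cells synchronized by double thymidine or nocodazole block, proteins quantified by TMT10plex mass spectrometry, three independent biological replicates.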
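Wherever solubility change mitosis vs G1/S (difference of NP-40 vs SDS log2 ratios) is given: synchronized HeLa Kyoto cells (double thymidine block for G1/S, nocodazole release for mitosis), protein amounts in NP-40 versus SDS lysates quantified by mass spectrometry, three biological replicates.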
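Wherever solubility in G1/S (NP-40 vs SDS abundance) is given: HeLa Kyoto cells arrested at G1/S by double thymidine block, proteins quantified by TMT10plex mass spectrometry in mild NP-40 versus SDS extracts, three biological replicates.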

Chain of IRF2BPL (chain, as listed by the source): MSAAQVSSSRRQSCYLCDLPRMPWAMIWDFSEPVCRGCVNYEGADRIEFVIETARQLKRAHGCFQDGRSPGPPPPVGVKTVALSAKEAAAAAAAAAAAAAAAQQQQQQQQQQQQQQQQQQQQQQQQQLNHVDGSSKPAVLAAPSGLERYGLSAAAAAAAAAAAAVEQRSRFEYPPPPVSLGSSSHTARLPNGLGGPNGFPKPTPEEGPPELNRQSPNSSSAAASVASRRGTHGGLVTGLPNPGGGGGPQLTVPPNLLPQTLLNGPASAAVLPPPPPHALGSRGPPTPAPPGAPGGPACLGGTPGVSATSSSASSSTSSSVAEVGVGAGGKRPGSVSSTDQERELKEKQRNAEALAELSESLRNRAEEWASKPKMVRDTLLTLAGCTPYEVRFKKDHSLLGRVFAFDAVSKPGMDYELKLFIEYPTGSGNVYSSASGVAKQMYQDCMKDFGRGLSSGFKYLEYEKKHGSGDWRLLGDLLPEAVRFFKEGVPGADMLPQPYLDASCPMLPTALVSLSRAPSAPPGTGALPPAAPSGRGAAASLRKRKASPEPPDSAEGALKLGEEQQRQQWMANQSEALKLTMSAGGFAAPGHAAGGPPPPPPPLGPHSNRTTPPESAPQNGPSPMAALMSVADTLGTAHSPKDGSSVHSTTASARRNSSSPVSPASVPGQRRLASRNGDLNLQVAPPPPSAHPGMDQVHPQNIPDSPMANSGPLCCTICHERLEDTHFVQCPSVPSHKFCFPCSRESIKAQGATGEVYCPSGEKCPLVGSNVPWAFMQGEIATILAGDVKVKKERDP

Row | Substance | solubility in G1/S (log2) (HeLa Kyoto [1]) | melting temperature (HeLa Kyoto [2]; cell cycle stage: G1/S) [°C] | solubility change mitosis (log2) (HeLa Kyoto [3]) | melting temperature (HeLa Kyoto [2]; cell cycle stage: mitosis) [°C]
1 | MRRAAGMEDFSAEEEESWYDQQDLEQDLHLAAELGKTLLERNKELEGSLQQMYSTNEEQVQEIEYLTKQLDTLRHVNEQHAKVYEQLDLTARDLELTNHRLVLESKAAQQKIHGLTETIERLQAQVEELQAQVEQLRGLEQLRVLREKRERRRTIHTFPCLKELCTSPRCKDAFRLHSSSLELGPRPLEQENERLQTLVGALRSQVSQERQRKERAEREYTAVLQEYSELERQLCEMEACRLRVQELEAELLELQQMKQAKTYLLGPDDHLAEALLAPLTQAPEADDPQPGRGDDLGAQDGVSSPAASPGHVVRKSCSDTALNAIVAKDPASRHAGNLTLHANSVRKRGMSILREVDEQYHALLEKYEELLSKCRQHGAGVRHAGVQTSRPISRDSSWRDLRGGEEGQGEVKAGEKSLSQHVEAVDKRLEQSQPEYKALFKEIFSRIQKTKADINATKVKTHSSK [CDR2L] | 0.549 | 52.5 | -0.204 | –
2 | MRDYDEVTAFLGEWGPFQRLIFFLLSASIIPNGFTGLSSVFLIATPEHRCRVPDAANLSSAWRNHTVPLRLRDGREVPHSCRRYRLATIANFSALGLEPGRDVDLGQLEQESCLDGWEFSQDVYLSTIVTEWNLVCEDDWKAPLTISLFFVGVLLGSFISGQLSDRFGRKNVLFVTMGMQTGFSFLQIFSKNFEMFVVLFVLVGMGQISNYVAAFVLGTEILGKSVRIIFSTLGVCIFYAFGYMVLPLFAYFIRDWRMLLVALTMPGVLCVALWWFIPESPRWLISQGRFEEAEVIIRKAAKANGIVVPSTIFDPSELQDLSSKKQQSHNILDLLRTWNIRMVTIMSIMLWMTISVGYFGLSLDTPNLHGDIFVNCFLSAMVEVPAYVLAWLLLQYLPRRYSMATALFLGGSVLLFMQLVPPDLYYLATVLVMVGKFGVTAAFSMVYVYTAELYPTVVRNMGVGVSSTASRLGSILSPYFVYLGAYDRFLPYILMGSLTILTAILTLFLPESFGTPLPDTIDQMLRVKGMKHRKTPSHTRMLKDGQERPTILKSTAF [SLC22A5] | 0.228 | 59.7 | -0.137 | 56.9
3 | MAAQPPRGIRLSALCPKFLHTNSTSHTWPFSAVAELIDNAYDPDVNAKQIWIDKTVINDHICLTFTDNGNGMTSDKLHKMLSFGFSDKVTMNGHVPVGLYGNGFKSGSMRLGKDAIVFTKNGESMSVGLLSQTYLEVIKAEHVVVPIVAFNKHRQMINLAESKASLAAILEHSLFSTEQKLLAELDAIIGKKGTRIIIWNLRSYKNATEFDFEKDKYDIRIPEDLDEITGKKGYKKQERMDQIAPESDYSLRAYCSILYLKPRMQIILRGQKVKTQLVSKSLAYIERDVYRPKFLSKTVRITFGFNCRNKDHYGIMMYHRNRLIKAYEKVGCQLRANNMGVGVVGIIECNFLKPTHNKQDFDYTNEYRLTITALGEKLNDYWNEMKVKKNTEYPLNLPVEDIQKRPDQTWVQCDACLKWRKLPDGMDQLPEKWYCSNNPDPQFRNCEVPEEPEDEDLVHPTYEKTYKKTNKEKFRIRQPEMIPRINAELLFRPTALSTPSFSSPKESVPRRHLSEGTNSYATRLLNNHQVPPQSEPESNSLKRRLSTRSSILNAKNRRLSSQFENSVYKGDDDDEDVIILEENSTPKPAVDHDIDMKSEQSHVEQGGVQVEFVGDSEPCGQTGSTSTSSSRCDQGNTAATQTEVPSLVVKKEETVEDEIDVRNDAVILPSCVEAEAKIHETQETTDKSADDAGCQLQELRNQLLLVTEEKENYKRQCHMFTDQIKVLQQRILEMNDKYVKKETCHQSTETDAVFLLESINGKSESPDHMVSQYQQALEEIERLKKQCSALQHVKAECSQCSNNESKSEMDEMAVQLDDVFRQLDKCSIERDQYKSEVELLEMEKSQIRSQCEELKTEVEQLKSTNQQTATDVSTSSNIEESVNHMDGESLKLRSLRVNVGQLLAMIVPDLDLQQVNYDVDVVDEILGQVVEQMSEISST [MORC3] | -0.0527 | 48.7 | -0.206 | 49.6
4 | MLQGHSSVFQALLGTFFTWGMTAAGAALVFVFSSGQRRILDGSLGFAAGVMLAASYWSLLAPAVEMATSSGGFGAFAFFPVAVGFTLGAAFVYLADLLMPHLGAAEDPQTTLALNFGSTLMKKKSDPEGPALLFPESELSIRIGRAGLLSDKSENGEAYQRKKAAATGLPEGPAVPVPSRGNLAQPGGSSWRRIALLILAITIHNVPEGLAVGVGFGAIEKTASATFESARNLAIGIGIQNFPEGLAVSLPLRGAGFSTWRAFWYGQLSGMVEPLAGVFGAFAVVLAEPILPYALAFAAGAMVYVVMDDIIPEAQISGNGKLASWASILGFVVMMSLDVGLG [SLC39A11] | 0.00506 | 56 | -0.134 | 51.9
5 | MSGLDGVKRTTPLQTHSIIISDQVPSDQDAHQYLRLRDQSEATQVMAEPGEGGSETVALPPPPPSEEGGVPQDAAGRGGTPQIRVVGGRGHVAIKAGQEEGQPPAEGLAAASVVMAADRSLKKGVQGGEKALEICGAQRSASELTAGAEAEAEEVKTGKCATVSAAVAERESAEVVKEGLAEKEVMEEQMEVEEQPPEGEEIEVAEEDRLEEEAREEEGPWPLHEALRMDPLEAIQLELDTVNAQADRAFQQLEHKFGRMRRHYLERRNYIIQNIPGFWMTAFRNHPQLSAMIRGQDAEMLRYITNLEVKELRHPRTGCKFKFFFRRNPYFRNKLIVKEYEVRSSGRVVSLSTPIIWRRGHEPQSFIRRNQDLICSFFTWFSDHSLPESDKIAEIIKEDLWPNPLQYYLLREGVRRARRRPLREPVEIPRPFGFQSG [TSPYL1] | -0.443 | 51.2 | 0.141 | 49.9
6 | MEPAGPCGFCPAGEVQPARYTCPRCNAPYCSLRCYRTHGTCAENFYRDQVLGELRGCSAPPSRLASALRRLRQQRETEDEPGEAGLSSGPAPGGLSGLWERLAPGEKAAFERLLSRGEAGRLLPPWRPWWWNRGAGPQLLEELDNAPGSDAAELELAPARTPPDSVKDASAAEPAAAERVLGDVPGACTPVVPTRIPAIVSLSRGPVSPLVRFQLPNVLFAYAHTLALYHGGDDALLSDFCATLLGVSGALGAQQVFASAEEALQAAAHVLEAGEHPPGPLGTRGAMHEVARILLGEGPTNQKGYTLAALGDLAQTLGRARKQAVAREERDHLYRARKKCQFLLAWTNENEAALTPLALDCARAHQAHAVVAEEVAALTGELERLWGGPVPPAPRTLIEELPS [ZNHIT2] | 0.384 | 48.9 | 0.141 | 49.4
7 | MSLQSRLSGRLAQLRAAGQLLVPPRPRPGHLAGATRTRSSTCGPPAFLGVFGRRARTSAGVGAWGAAAVGRTAGVRTWAPLAMAAKVDLSTSTDWKEAKSFLKGLSDKQREEHYFCKDFVRLKKIPTWKEMAKGVAVKVEEPRYKKDKQLNEKISLLRSDITKLEVDAIVNAANSSLLGGGGVDGCIHRAAGPLLTDECRTLQSCKTGKAKITGGYRLPAKYVIHTVGPIAYGEPSASQAAELRSCYLSSLDLLLEHRLRSVAFPCISTGVFGYPCEAAAEIVLATLREWLEQHKDKVDRLIICVFLEKDEDIYRSRLPHYFPVA [MACROD1] | 0.246 | 50.6 | -0.147 | 51.1
8 | MDNLSSEEIQQRAHQITDESLESTRRILGLAIESQDAGIKTITMLDEQKEQLNRIEEGLDQINKDMRETEKTLTELNKCCGLCVCPCNRTKNFESGKAYKTTWGDGGENSPCNVVSKQPGPVTNGQLQQPTTGAASGGYIKRITNDAREDEMEENLTQVGSILGNLKDMALNIGNEIDAQNPQIKRITDKADTNRDRIDIANARAKKLIDS [SNAP23] | -0.00465 | 54.8 | 0.381 | 54
9 | IRF2BPL | 0.519 | 50 | -0.131 | 50.9
10 | MEEYHRHCDEVGFNAEEAHNIVKECVDGVLGGEDYNHNNINQWTASIVEQSLTHLVKLGKAYKYIVTCAVVQKSAYGFHTASSCFWDTTSDGTCTVRWENRTMNCIVNVFAIAIVL [DYNLT3] | -0.189 | 53.3 | -0.243 | 54.1
11 | MFPLTEENKHVAQLLLNTGTCPRCIFRFCGVDFHAPYKLPYKELLNELQKFLETEKDELILEVMNPPPKKIRLQELEDSIDNLSQNGEGRISVSHVGSTASKNSNLNVCNVCLGILQEFCEKDFIKKVCQKVEASGFEFTSLVFSVSFPPQLSVREHAAWLLVKQEMGKQSLSLGRDDIVQLKEAYKWITHPLFSEELGVPIDGKSLFEVSVVFAHPETVEDCHFLAAICPDCFKPAKNKQSVFTRMAVMKALNKIKEEDFLKQFPCPPNSPKAVCAVLEIECAHGAVFVAGRYNKYSRNLPQTPWIIDGERKLESSVEELISDHLLAVFKAESFNFSSSGREDVDVRTLGNGRPFAIELVNPHRVHFTSQEIKELQQKINNSSNKIQVRDLQLVTREAIGHMKEGEEEKTKTYSALIWTNKAIQKKDIEFLNDIKDLKIDQKTPLRVLHRRPLAVRARVIHFMETQYVDEHHFRLHLKTQAGTYIKEFVHGDFGRTKPNIGSLMNVTADILELDVESVDVDWPPALDD [PUS10] | 0.0782 | 50.8 | -0.271 | 51.8
12 | MKGLGDSRPRHLSDSLDPPHEPLFAGTDRNPYLLSPTEAFAREARFPGQNTLPGDGLFPLNNQLPPPSSTFPRIHYNSHFEVPEESPFPSHAQATKINRLPANLLDQFEKQLPIHRDGFSTLQFPRGEAKARGESPGRIRHLVHSVQRLFFTKAPSLEGTAGKVGGNGSKKGGMEDGKGRRAKSKERAKAGEPKRRSRSNISGWWSSDDNLDGEAGAFRSSGPASGLMTLGRQAERSQPRYFMHAYNTISGHMLKTTKNNTTELTAPPPPPAPPATCPSLGVGTDTNYVKRGSWSTLTLSHAHEVCQKTSATLDKSLLKSKSCHQGLAYHYLQVPGGGGEWSTTLLSPRETDAAAEGPIPCRRMRSGSYIKAMGDEDSDESGGSPKPSPKTAARRQSYLRATQQSLGEQSNPRRSLDRLDSVDMLLPSKCPSWEEDYTPVSDSLNDSSCISQIFGQASLIPQLFGHEQQVREAELSDQYEAACESACSEAESTAAETLDLPLPSYFRSRSHSYLRAIQAGCSQEEDSVSLQSLSPPPSTGSLSNSRTLPSSSCLVAYKKTPPPVPPRTTSKPFISVTVQSSTESAQDTYLDSQDHKSEVTSQSGLSNSSDSLDSSTRPPSVTRGGVAPAPEAPEPPPKHAALKSEQGTLTSSESHPEAAPKRKLSSIGIQVDCIQPVPKEEPSPATKFQSIGVQVEDDWRSSVPSHSMSSRRDTDSDTQDANDSSCKSSERSLPDCTPHPNSISIDAGPRQAPKIAQIKRNLSYGDNSDPALEASSLPPPDPWLETSSSSPAEPAQPGACRRDGYWFLKLLQAETERLEGWCCQMDKETKENNLSEEVLGKVLSAVGSAQLLMSQKFQQFRGLCEQNLNPDANPRPTAQDLAGFWDLLQLSIEDISMKFDELYHLKANSWQLVETPEKRKEEKKPPPPVPKKPAKSKPAVSRDKASDASDKQRQEARKRLLAAKRAASVRQNSATESADSIEIYVPEAQTRL [DLGAP4] | 0.269 | – | -0.0211 | 55.5
13 | MQNEPLTPGYHGFPARDSQGNQEPTTTPDAMVQPFTTIPFPPPPQNGIPTEYGVPHTQDYAGQTGEHNLTLYGSTQAHGEQSSNSPSTQNGSLTTEGGAQTDGQQSQTQSSENSESKSTPKRLHVSNIPFRFRDPDLRQMFGQFGKILDVEIIFNERGSKGFGFVTFENSADADRAREKLHGTVVEGRKIEVNNATARVMTNKKMVTPYANGWKLSPVVGAVYGPELYAASSFQADVSLGNDAAVPLSGRGGINTYIPLISLPLVPGFPYPTAATTAAAFRGAHLRGRGRTVYGAVRAVPPTAIPAYPGVVYQDGFYGADLYGGYAAYRYAQPATATAATAAAAAAAAYSDGYGRVYTADPYHALAPAASYGVGAVASLYRGGYSRFAPY [RBFOX2] | 0.223 | 49.8 | 0.0624 | –
